The target in the assay is oncofetal fibronectin (human) (UniProt P02751). Put plainly: lateral-flow sandwich test strip (mobile FDC-6 conjugate, goat polyclonal anti-fibronectin capture), TLiIQ reflectance reader, at 50 ng/ml oncofetal fibronectin.
Chain of UniProt P02751 (P02751 32-2477): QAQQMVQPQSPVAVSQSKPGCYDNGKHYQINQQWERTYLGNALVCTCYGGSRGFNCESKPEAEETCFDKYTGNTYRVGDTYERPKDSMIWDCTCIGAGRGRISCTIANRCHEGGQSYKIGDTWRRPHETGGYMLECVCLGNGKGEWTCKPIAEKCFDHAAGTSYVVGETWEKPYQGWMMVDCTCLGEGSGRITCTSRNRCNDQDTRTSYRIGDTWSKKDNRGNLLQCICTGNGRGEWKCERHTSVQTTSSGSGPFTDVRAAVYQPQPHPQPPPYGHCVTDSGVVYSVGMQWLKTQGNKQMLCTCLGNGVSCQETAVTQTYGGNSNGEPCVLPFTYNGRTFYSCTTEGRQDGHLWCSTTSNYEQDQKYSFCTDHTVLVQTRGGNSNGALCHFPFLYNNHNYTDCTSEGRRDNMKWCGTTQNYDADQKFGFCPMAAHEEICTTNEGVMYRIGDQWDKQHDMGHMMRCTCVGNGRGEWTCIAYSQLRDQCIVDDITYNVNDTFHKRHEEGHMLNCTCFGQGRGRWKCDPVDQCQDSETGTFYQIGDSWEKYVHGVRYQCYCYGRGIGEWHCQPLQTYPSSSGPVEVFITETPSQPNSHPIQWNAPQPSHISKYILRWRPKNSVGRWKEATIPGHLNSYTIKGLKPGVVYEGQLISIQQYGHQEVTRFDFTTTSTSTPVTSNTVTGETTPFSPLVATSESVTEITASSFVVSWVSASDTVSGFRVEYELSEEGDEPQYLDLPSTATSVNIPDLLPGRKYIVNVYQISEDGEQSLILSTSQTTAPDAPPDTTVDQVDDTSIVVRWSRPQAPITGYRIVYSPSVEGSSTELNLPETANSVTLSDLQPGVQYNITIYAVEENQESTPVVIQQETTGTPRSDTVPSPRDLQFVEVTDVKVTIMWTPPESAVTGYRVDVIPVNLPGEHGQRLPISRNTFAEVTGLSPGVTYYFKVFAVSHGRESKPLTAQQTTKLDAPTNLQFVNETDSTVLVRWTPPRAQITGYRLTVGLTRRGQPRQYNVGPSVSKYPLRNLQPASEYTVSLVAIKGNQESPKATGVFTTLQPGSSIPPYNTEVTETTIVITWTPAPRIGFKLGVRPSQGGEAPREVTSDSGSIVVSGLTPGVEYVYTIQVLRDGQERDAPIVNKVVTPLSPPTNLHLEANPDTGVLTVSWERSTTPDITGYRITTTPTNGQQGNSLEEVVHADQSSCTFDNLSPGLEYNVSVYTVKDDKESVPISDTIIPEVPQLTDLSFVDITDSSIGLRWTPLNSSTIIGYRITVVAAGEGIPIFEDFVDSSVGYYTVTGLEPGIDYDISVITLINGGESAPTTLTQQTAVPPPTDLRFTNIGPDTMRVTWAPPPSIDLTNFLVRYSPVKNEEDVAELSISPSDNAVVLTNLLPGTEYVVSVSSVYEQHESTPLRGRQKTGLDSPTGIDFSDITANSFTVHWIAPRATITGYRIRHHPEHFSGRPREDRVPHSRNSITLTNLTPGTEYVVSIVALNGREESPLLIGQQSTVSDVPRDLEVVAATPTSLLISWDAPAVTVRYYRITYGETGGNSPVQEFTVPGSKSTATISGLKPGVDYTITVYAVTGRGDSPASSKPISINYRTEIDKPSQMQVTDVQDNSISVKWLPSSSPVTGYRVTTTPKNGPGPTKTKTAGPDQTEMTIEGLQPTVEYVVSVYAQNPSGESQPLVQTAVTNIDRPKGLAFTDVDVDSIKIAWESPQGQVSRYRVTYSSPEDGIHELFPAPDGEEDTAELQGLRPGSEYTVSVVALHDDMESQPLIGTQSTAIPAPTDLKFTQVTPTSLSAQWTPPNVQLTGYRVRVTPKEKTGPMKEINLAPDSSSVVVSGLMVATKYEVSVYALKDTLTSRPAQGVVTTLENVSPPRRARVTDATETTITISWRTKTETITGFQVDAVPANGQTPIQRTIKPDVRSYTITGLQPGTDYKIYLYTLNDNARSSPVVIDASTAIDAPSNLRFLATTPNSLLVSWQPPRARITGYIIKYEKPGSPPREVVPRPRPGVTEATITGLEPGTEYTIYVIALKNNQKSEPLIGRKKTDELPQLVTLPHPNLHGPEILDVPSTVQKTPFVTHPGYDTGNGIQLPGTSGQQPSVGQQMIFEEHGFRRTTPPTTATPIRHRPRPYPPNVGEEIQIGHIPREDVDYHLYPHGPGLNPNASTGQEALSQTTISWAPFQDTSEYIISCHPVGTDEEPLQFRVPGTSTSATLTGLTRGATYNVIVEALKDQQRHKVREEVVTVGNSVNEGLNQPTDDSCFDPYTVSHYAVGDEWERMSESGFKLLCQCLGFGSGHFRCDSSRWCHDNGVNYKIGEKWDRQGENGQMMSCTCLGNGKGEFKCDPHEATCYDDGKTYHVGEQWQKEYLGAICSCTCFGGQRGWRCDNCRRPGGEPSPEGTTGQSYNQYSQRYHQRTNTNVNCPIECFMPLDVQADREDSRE

On to “FDC-6 monoclonal antibody (produced by hybridoma ATCC HB 9018)”, for which the reflectance signal stood at 0.315.

The record behind these values is patent US20060024724A1.
